Experimental data: paper doi:10.1101/2025.03.20.644338 (bioRxiv, 2025)

Assays:
Experiment in all cases: ITC
[1] = biological target: wild-type mouse Rbpj core (residues 53-474) (mouse, UniProt P31266 53-474)
[2] = biological target: mouse Rbpj core (residues 53-474) F92V variant (mouse, UniProt P31266 53-474, F92V)
[3] = biological target: mouse Rbpj core (residues 53-474) S358R variant (mouse, UniProt P31266 53-474, S358R)
[4] = biological target: mouse Rbpj core (residues 53-474) R91G variant (mouse, UniProt P31266 53-474, R91G)

Measured: binding result

Sequence of mouse Rbpj core (residues 53-474) S358R variant (P31266 53-474 S358R): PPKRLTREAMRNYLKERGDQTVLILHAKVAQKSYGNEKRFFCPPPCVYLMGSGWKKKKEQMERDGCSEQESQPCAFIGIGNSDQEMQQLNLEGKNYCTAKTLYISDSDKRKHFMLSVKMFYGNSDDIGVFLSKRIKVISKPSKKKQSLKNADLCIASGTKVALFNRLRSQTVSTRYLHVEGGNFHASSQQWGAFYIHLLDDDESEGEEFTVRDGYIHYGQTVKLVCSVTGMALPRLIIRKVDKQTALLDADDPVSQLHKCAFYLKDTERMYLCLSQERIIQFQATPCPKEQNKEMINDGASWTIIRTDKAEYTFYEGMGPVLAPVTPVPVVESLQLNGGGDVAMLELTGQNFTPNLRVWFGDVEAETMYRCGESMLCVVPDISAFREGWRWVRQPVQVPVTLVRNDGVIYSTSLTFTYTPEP
Sequence of wild-type mouse Rbpj core (residues 53-474) (P31266 53-474): as the sequence (P31266 53-474 S358R) above, with R306S counted along it
Sequence of mouse Rbpj core (residues 53-474) F92V variant (P31266 53-474 F92V): as the sequence (P31266 53-474 S358R) above, with F40V, R306S counted along it
Sequence of mouse Rbpj core (residues 53-474) R91G variant (P31266 53-474 R91G): as the sequence (P31266 53-474 S358R) above, with R39G, R306S counted along it

B1: human SHARP residues 2776-2833 (domain or fragment)
chain: RASANENSRFHPGSMPVIDDRPADAGSGAGLRVNTSEGVVLLSYSGQKTEGPQRISAK
binds: [1] | [2] | [3]

VLLSRKRRRQHGQLWFPEGFKVSEASKK [peptide consisting of residues 1754-1781 of human NOTCH1]
binds: [1] | [2] | [4] | [3]
